In test [1] the test system is pANITA3.1 ratGIPR (DB388). Description: Immunoprecipitation from whole cell lysates. Set-up: key to Immunoprecipitation signal intensity: “−” no signal; “+”-“+++++” signal intensity; “+”-“+++++” signal intensity; “+”-“+++++” signal intensity; “+”-“+++++” signal intensity; “+”-“+++++” signal intensity. Format: binding, rat. As to the method:
(§1) The positive clones (Table 1) were further characterized by immunofluorescence (IF; Table 2), Western Blot (Table 3, 1) and Immune precipitation (Table 4, 2) on full length hCB2, hCB1, mCB2 stable-transfected CHO-cell lines in addition to the 2 pANITA constructs.
(§2) For immunoprecipitation (IP), whole cell lysates were incubated with the respective antibodies. IP was performed according to established protocols and subsequent western blot as described herein above.

A further test has as its target T1, CHODukx CRE hCB2 Cl.90 (Homo sapiens, UniProt P34972).
T1 construct: expressed in transfected cells
Nature of the test: Western blot of cell lysates. Format: binding. On the set-up: key: “−” no signal; “+”-“+++++” signal intensity; “+”-“+++++” signal intensity; “+”-“+++++” signal intensity; “+”-“+++++” signal intensity; “+”-“+++++” signal intensity. The following applies: CHODukx CRE hCB2 Cl.90 lysate. How it is done: as §1
(§3) For Western blot analysis, cells were collected using enzyme free dissociation buffer (Cell dissociation buffer enzyme-free Hanks'-based, Gibco), and washed two times with PBS. To prepare cell lysate, 10^6 cells were lysed with 0.1 ml of lysis buffer (1% NP40, 10% glycerol, 2 mM EDTA, 137 mM NaCl, 20 mM TrisHCl, pH8, Protease Inhibitors) for 10 min on ice. The lysate was cleared by centrifugation at 20′000 g for 5 min. For SDS-PAGE cell lysate was resolved on precast 4-12% gradient gels (NuPAGE® Novex 4-12% Bis-Tris Gel, Invitrogen) with MES running buffer according to the manufacturer's directions. The separation of proteins was visualized by Colloidal Blue staining. The proteins were electrophoretically transferred to nitrocellulose membrane using a dry-blotting system (iBlot, Invitrogen). After blocking the membrane for 16 h in blocking buffer (5% Milk in PBS) at 4° C., specific proteins were detected with appropriate dilutions of mAbs in blocking buffer for 1 h at approximately 20° C. […]
For orientation: In western blotting, separated proteins are transferred to a membrane and probed.

For a further test, the target named is T2, CHO-A2 mCB2 (Mus musculus, UniProt P47936).
T2 construct: expressed in transfected cells
T2 sequence (P47936 whole entry): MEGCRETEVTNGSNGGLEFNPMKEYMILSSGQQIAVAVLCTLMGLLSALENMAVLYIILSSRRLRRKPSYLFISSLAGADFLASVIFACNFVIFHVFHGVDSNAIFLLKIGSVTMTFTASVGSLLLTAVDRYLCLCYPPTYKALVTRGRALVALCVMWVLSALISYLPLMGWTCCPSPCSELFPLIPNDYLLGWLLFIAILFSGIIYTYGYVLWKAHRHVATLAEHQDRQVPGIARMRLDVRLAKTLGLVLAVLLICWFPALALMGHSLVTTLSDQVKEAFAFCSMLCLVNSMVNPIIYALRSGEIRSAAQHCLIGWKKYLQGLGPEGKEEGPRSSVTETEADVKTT
Description: Western blot of cell lysates. Format: binding. Set-up: key: “−” no signal; “+”-“+++++” signal intensity; “+”-“+++++” signal intensity; “+”-“+++++” signal intensity; “+”-“+++++” signal intensity; “+”-“+++++” signal intensity. Particulars: CHO-A2 mCB2 lysate. How it is done: as §1, §3

In test [2] the target is T3, pANITA3.1 hCB2 (JB175) (Homo sapiens, UniProt P34972).
T3 construct: expressed in transfected cells; host or cells: HEK293
T3 sequence (P34972 with tags, fused parts or gaps): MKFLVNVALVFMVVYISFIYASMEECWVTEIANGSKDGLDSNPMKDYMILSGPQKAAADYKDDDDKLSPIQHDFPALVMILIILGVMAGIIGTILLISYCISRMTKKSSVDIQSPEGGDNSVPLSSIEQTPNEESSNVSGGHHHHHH
Nature of the test: Immunoprecipitation from whole cell lysates. In kind it is binding. On the set-up: key to Immunoprecipitation signal intensity: “−” no signal; “+”-“++++” signal intensity; “+”-“++++” signal intensity; “+”-“++++” signal intensity; “+”-“++++” signal intensity. How it is done:
as §1, §2

A further test deals with T4, pANITA3.1 mCB2 (JB176) (Mus musculus, UniProt P47936).
T4 construct: expressed in transfected cells; host or cells: HEK293
T4 sequence (P47936 with tags, fused parts or gaps): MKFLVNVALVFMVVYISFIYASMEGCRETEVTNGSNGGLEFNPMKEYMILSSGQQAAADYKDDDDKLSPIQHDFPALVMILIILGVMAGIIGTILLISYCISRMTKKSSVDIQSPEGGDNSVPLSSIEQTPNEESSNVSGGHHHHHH
Description: Immunofluorescence on methanol-fixed transfected cells. In kind it is binding. On the set-up: key: “−” no fluorescence detected; “+”-“++++” intensity of fluorescent signal; “+”-“++++” intensity of fluorescent signal; “+”-“++++” intensity of fluorescent signal; “+”-“++++” intensity of fluorescent signal. Particulars: pANITA3.1 mCB2 (JB176) cells. How it is done: as §1
(§4) For IF analysis, methanol-fixed cells were incubated for 20 min in a humid chamber at 37° C. with the respective hCB2 and mCB2 clones. After rinsing twice and washing for 15 min in PBS, 125 μg/ml FITC-conjugated […] anti-mouse IgG antibodies (RAM/IgG (H+L)/FITC, Nordic
(§5) Immunological Laboratories) diluted in PBS was added and incubated for 20 min in a humid chamber at 37° C. Cells were rinsed twice and washed for 15 min in PBS, mounted with mounting solution (50% PBS 50% glycerol) and covered with a coverslip. Staining was assessed by fluorescence microscopy on a Leica CTR500 fluorescence microscope and a Leica DFC300 FX digital camera.

Test [3] concerns the target T3, pANITA3.1 hCB2 (JB175). Described as above. In kind it is binding. Set-up: key: “−” no fluorescence detected; “+”-“++++” intensity of fluorescent signal; “+”-“++++” intensity of fluorescent signal; “+”-“++++” intensity of fluorescent signal; “+”-“++++” intensity of fluorescent signal. The following applies: pANITA3.1 hCB2 (JB175) cells. As to the method: as §1, §4, §5

In the next test the test system is CHODukx negative. Nature of the test: Immunofluorescence on methanol-fixed cells, negative control. Set-up: key to immunofluorescence signal intensity: “−” no fluorescence detected; “+”-“++++” intensity of fluorescent signal; “+”-“++++” intensity of fluorescent signal; “+”-“++++” intensity of fluorescent signal; “+”-“++++” intensity of fluorescent signal. Format: binding. As to the method:
as §1, §4, §5

A further test has as its target T5, CHODukx CRE hCB1 Cl.20 (Homo sapiens, UniProt P21554).
T5 construct: expressed in transfected cells
Nature of the test: Western blot of cell lysates. Set-up: key to Western Blot signal intensity: “−” no signal; “+”-“+++++” signal intensity; “+”-“+++++” signal intensity; “+”-“+++++” signal intensity; “+”-“+++++” signal intensity; “+”-“+++++” signal intensity. In kind it is binding. As to the method:
as §1, §3

Test [4] deals with pANITA3.1 ratGIPR (DB388). Description: Western blot of cell lysates. In kind it is binding, rat. On the set-up: key to Western Blot signal intensity: “−” no signal; “+”-“+++++” signal intensity; “+”-“+++++” signal intensity; “+”-“+++++” signal intensity; “+”-“+++++” signal intensity; “+”-“+++++” signal intensity. As to the method: as §1, §3
The mark [5] stands for this setting: pANITA3.1 ratGIPR (DB388) lysate.

T5 sequence (P21554 whole entry): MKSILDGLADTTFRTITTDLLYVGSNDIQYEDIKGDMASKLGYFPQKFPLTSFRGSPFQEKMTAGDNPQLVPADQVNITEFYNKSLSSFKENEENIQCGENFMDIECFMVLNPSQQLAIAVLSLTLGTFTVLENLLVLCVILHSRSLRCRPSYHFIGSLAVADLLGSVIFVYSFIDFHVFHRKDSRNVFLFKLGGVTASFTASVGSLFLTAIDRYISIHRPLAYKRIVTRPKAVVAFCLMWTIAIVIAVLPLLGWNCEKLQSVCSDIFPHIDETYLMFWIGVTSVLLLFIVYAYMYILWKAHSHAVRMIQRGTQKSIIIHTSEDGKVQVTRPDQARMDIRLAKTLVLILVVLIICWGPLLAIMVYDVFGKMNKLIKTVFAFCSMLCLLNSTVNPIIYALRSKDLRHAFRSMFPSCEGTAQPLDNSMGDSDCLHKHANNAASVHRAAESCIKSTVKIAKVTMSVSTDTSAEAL
T1 sequence (P34972 whole entry): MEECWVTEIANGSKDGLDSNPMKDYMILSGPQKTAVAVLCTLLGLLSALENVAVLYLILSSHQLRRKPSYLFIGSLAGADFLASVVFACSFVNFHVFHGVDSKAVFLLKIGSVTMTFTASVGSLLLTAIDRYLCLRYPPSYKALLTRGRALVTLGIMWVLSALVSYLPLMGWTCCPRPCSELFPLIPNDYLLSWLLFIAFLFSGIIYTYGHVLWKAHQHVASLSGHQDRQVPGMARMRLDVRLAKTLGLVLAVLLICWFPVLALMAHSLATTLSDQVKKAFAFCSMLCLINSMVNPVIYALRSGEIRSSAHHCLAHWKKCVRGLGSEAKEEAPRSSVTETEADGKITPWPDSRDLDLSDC

B1: hCB2-1/622: murine IgG3 monoclonal anti-human CB2 antibody, VH SEQ ID NO: 1, VL SEQ ID NO: 2, HC SEQ ID NO: 3, LC SEQ ID NO: 4 (antibody)
heavy: EVQLQQSGPELVKPGASVKISCKTSGYTFTEYTMHWVRQSHGKSLEWIGGIDRYNGDTYYNQKFKDKATLTVDRSSSTAYMELRSLTSEDSAVYFCARNGAMDYWGQGISVTVSSATTTAPSVYPLVPGCSDTSGSSVTLGCLVKGYFPEPVTVKWNYGALSSGVRTVSSVLQSGFYSLSSLVTVPSSTWPSQTVICNVAHPASKTELIKRIEPRIPKPSTPPGSSCPPGNILGGPSVFIFPPKPKDALMISLTPKVTCVVVDVSEDDPDVHVSWFVDNKEVHTAWTQPREAQYNSTFRVVSALPIQHQDWMRGKEFKCKVNNKALPAPIERTISKPKGRAQTPQVYTIPPPREQMSKKKVSLTCLVTNFFSEAISVEWERNGELEQDYKNTPPILDSDGTYFLYSKLTVDTDSWLQGEIFTCSVVHEALHNHHTQKNLSRSPGK
light: DVVMTQTPLSLPVSLGDQASISCRSSQSLVHSNGNTYLHWFLQKPGQSPKLLIYKVSIRFSGVPDRFSGSGSGTDFTLKISRVEAEDLGVYFCSQSTHVPPLTFGAGTKLELKRADAAPTVSIFPPSSEQLTSGGASVVCFLNNFYPKDINVKWKIDGSERQNGVLNSWTDQDSKDSTYSMSSTLTLTKDEYERHNSYTCEATHKTSTSPIVKSFNRNEC
Take B1: the Immunoprecipitation signal intensity result in test [1] (setting [5]) is “−”; in the test with pANITA3.1 hCB2 (JB175) [2] (pANITA3.1 hCB2 (JB175) lysate) it was “++++”. Also, the “immunoprecipitation cross reactivity” value in test [1] (rat GIPR) was “no cross reactivity”. In addition, the “Western Blot signal intensity” value (in the test with CHODukx CRE hCB2 Cl.90; with CHO-A2 mCB2; in the test with CHODukx CRE hCB1 Cl.20 (CHODukx CRE hCB1 Cl.20 lysate); in test [4] (setting [5])) was “−” in each case. Further, the “immunoprecipitation binding” value in the test with pANITA3.1 hCB2 (JB175) [2] (hCB2) is given as “specifically binds”. The immunofluorescence signal intensity entry with pANITA3.1 mCB2 (JB176) is “−”; with pANITA3.1 hCB2 (JB175) [3] it was “++++”; in the test with CHODukx negative (CHODukx negative cells), “−”. Moreover, in the test with CHODukx negative (negative control cells), the “immunofluorescence staining” value is listed as “no staining”. Besides, the “Western blot detection” value with CHODukx CRE hCB1 Cl.20 (hCB1) was “no mCB2, hCB1 or rat GIPR was detected”; in test [4] (rat GIPR), “no mCB2, hCB1 or rat GIPR was detected”.

Values taken from patent US20260029420A1, “ANTI-CB2 ANTIBODIES AND THEIR USE IN A FLOW CYTOMETRY ASSAY TO MEASURE CELL SURFACE CB2 EXPRESSION” (Hoffmann-La Roche Inc., priority 2022, published 2026).
